Data reported in IntAct's records for PubMed 18052611.

B1: Protein matrimony (Drosophila melanogaster (Fruit fly)), Q23973 (parent)
chain: MENSRTPTNKTKITLNRTPTLKERRWNTLKVNTSNVRCSTPIFGNFRSPNLSPIENMGTKGKSPVSPMRFATFKKVPTKVHPKQQQQQQHQHCHRTQLKPPPFVLPKPQEEIIEPEREIKSCSSPDTCSDDSNMETSLALESRRRSIKASNHSYVVNHAANVEQILMHMGLENYVTNFEEAHIDLVELASLERADLVKIGLNTDEDCNRIMDVLHTL
partner: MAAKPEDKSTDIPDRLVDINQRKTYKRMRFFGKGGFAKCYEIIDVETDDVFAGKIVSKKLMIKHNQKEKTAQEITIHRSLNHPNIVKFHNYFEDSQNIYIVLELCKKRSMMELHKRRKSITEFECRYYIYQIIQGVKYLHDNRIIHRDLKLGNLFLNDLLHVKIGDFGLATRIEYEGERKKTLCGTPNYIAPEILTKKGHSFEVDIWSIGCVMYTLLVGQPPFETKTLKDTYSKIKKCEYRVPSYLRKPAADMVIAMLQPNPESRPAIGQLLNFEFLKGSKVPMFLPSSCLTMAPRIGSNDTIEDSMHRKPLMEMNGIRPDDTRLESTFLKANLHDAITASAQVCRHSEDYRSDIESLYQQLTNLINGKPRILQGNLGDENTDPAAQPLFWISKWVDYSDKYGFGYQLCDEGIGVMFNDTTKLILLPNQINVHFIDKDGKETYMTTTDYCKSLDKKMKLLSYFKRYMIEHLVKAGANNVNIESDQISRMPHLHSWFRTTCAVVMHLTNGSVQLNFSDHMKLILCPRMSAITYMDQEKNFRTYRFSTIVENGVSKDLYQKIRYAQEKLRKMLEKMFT

Variants of: B1
Details: with polo_drome polo

effect of a mutation on the interaction	Variant
disrupting interaction	T40A
